Results from the DeepSol protein solubility set.

Test: soluble on expression in E. coli; label from the status in PepcDB or PDB records

Sequence	soluble on expression in E. coli
MGSDKIHHHHHHMATFTRKAIMQTFLHILKNKPLDRITVKDICEQCEINRNTFYYYFKDIYDVLEAIFEDEVRLVMDEAKEGVTFHDAYARVAALILNNREAIMHIYASENGRVLRTYLDAVVTQVVRRFVLEKAEGYSLDDSDIAFITAFYSNGIVGSTIKWIERGSMMSRLPENITANGVGLSKSQYNRDIVKRIGDSFDATIYDMIECCL	not soluble
MGSDKIHHHHHHMATLSTVPRIHYLRVQNFRALRNIELKNITPLTVLLGPNGSGKTTLFDVFNFLSECFQGGLRQAWDKRGRAKELKTRGADGPVVIEIKYRESKATPLITYHLSIDEGPKGPVVAEEWLAWTRGTQGRPWRFLDYRLGKGVVVGGELPDEKDERLDVPLRSAELLAVNTLGQIAQHPRVAALRDFITDWYVSYLSVDNTRTQPEAGPMEQLSKTGDNLPNVIQYLQETHPEQLQSITEVLRRRIPRLERIDATPMPDGRLLLEVKDAPFDKPVLSKFASDGTLKMLAYLTVLYDPEPPRFIGIEEPENFLHPRLLPELGEECRHASERTQLLVTTHSPFFLNSCRPDEVRILFRDEQGHTQVRTAADIEGIPEFVAAGASLGHLWIEGQFGMSDPLRNQGAPWTIEGARRGH	not soluble
MGSDKIHHHHHHMATPEFKYQKPFPMGDDTTEYYLLTKEYVSVDKFGDHDVLKVEPEALRLLARTAFHDIAFYLRPEHQQQVARILSDPEASENDKFVALTFLRNAEVSAKGQLPFCQDTGTAIILGKKGQQVWTGGHDEEQLSHGVYDTYTQENLRYSQNAPLDMYKEVNTGCNLPAQIDLMAVDGMEYDFLCIAKGGGSANKTYLYQETKALLNPKTLVNFLVDKMSSLGTAACPPYHIAFVIGGTSAETNLKTVKLASAKYYDNLPTSGNEGGRAFRDVELEKEVLEAAYHLGLGAQFGGKYFAHDVRIIRLPRHGASCPVGMGVSCSADRNIKAKINKDGIWIEKMETNPTRLIPESMREGTEGTVVKVDLNRPMPEILRELSQYPVSTRLSLSGTIIVGRDIAHAKLKERIDRGEGLPDYIKNHPIYYAGPAKTPKGMPSGSFGPTTAGRMDSYVDLFQSHGGSMVMIAKGNRSQQVTDACKKYGGFYLGSVGGPAAILAQDSIKKVECLEYPELGMEAIWKIEVEDFPAFILVDDKGNDFFTQIREKCKGCALH	not soluble
MGSDKIHHHHHHMATTIKNRYEFVLFFDVENGNPNGDPDADNMPRIDPETSFGLVSDVCIKRKIRNYVALLKENEDDYQIYVQEKAVLNNQHKKAYEHFKIKPESKKLPKDTAQAEAITQFMCKNFYDIRTFGAVMTTEVNCGQVRGPVQLGFSRSLDPIVPQEITITRMAVTNERDLEKERTMGRKHIVNYALYRAEGFISAPLADKTGFSEEDLELLWDALINMFDHDRSAARGKMSSRKLYVFKHDSKLGNAPASILFDAITVKKINGNKPVRNFSDYEISVTGNEIPQGVEVLELL	not soluble
MGSDKIHHHHHHMAVWNANEMPERDRFPYWREVLCEAYIALNPILEGEQRFKGEVKANLLDCINVTTISSSRQKIHRRRLDISRMPHEVYFLNLQVKGQCRMMQGSREALLEPGDFSLVDSTEPYLNDYCSDDWTQYSFRIPRAMLKPLLKQADKQTAIRFTSAHPIASVAIDYLKSVAQNAEHIGTASTPIANHIVDLVAMAAGVSTTEEDRARGTLRSQLSRSVIQFIGAHAADPTLTPAKAAQHFKISVRYVHRLLEESGETFSRLLLKRRLERCADDLRAEAAISISEIAFRWGFNDLSHFSKTFRHHFGVAPRDYRGQ	not soluble
MGSDKIHHHHHHMAYPFNHKEFVAMMEQYNLKSNSITIPEHTILNDLVTENRDCVYLLKSGILAGYIDFDNDKIYSIFTSNFFMGYYTIFDNASLVLTYQTLTECELIIYKKKDIEYSLSLFPENFSFQYTIMRTIAKHGYYKSLLQYRDKKDQLAFVFEMLVKILDIPVEDGVAVLPKSISTTVIKNYCTLSKAFFYSQLKELKEAGIISKVKLQWRINMEALSEKNNSIN	not soluble
MGSDKIHHHHHHMCRWLAYSGRPIFLDSLVTQPSHSLVAQSLHSQLNVSSAGVLLSTNGDGFGIGWYHKRPEPGVFKDDKPAWHDENLKNLCHQVKSHIFFAHIRATTTGDVQRTNCHPFQYKNWLFQHNGHVSHFDKIRRELQLEIAPELYPHLRGTTDSETFFLLALTYGLMEQPKQAMQKMVRRVITALEGVDKAGVLNLSCALSDGEKLFILRFAHNEAAMTQFYSADTDCFHEFNGQCNPIPNGSLVVVSEPLDKASDKWTSIPTNTFTSIIKNRVHSEVFL	not soluble
MGSDKIHHHHHHMDDGYIAEFALYRSLMKNLPWDTYQLFIDVARNGGLTGAVQSTGLSAATLGRRMVELEQKLGRILFHRAQTGYTLTVDGRALLDHLKSFEAAERGIDLWRQQTSQPALVRVTAGTWISWLIAQNLPKLCRSNDRFRLDLHITEERAALAHRETDIGIRAFEPQESNLARVPLGEVAYAAYRHRLADELEGQPWIAVAQDAAISAYLKWPHQHKAEQILITVNRPRSLKDMAVSGMGLAVLPCFVGDSHPQLQRVGDEITELRHRQWLVTNNDDRHRSEIRDCAGRLVTLMRDFSDAFAGRR	not soluble
MGSDKIHHHHHHMDDTTPPETPAVDDLLQRIAGAYDTLPRQLKRIASYIDEHRSSVMMDRTSDIAQRCGVHPSAVVRFAQRFGFSGFSDLQAVFKDAYTGQNPTVQSYQQRIRSLIDGEAGPMTGGAVARQFIDASRAGLDELAAGLDDDQFDAAVTMLERAENIYVVGVRRSFPVASYIVYALQHTAKRVHLVSGLGGMYREQIRSVKKGDVVIAISFAPYGKETQYCLRAARHNHAQTLVVTDSRLSPLARDASAHLLVKEGSAFAFRSLTSTICLCQALFIALAYRLELNVEEVKDIGGYDD	not soluble
MGSDKIHHHHHHMDGEGMSVGHYENFPVGSLILPRRLRKPVHAVYAFARTADDMADEGSMPSEARLSGLEGLRRELDVLASGGRSAHPLIARLDAEAVVPFGLDLQPFYDLLSAFSQDVVKTRYAHFGDLTDYCRRSANPVGRIMLALYGKTDAVCVAQSDGICTALQLVNFWQDVAVDWQKGRVYIPQDDLLKFGVSEEQIAAGRADAAFQRLMAYECRRAFRMLKAGSPLARELKGRIGLELRMIVLGAQLILQKLDACRYDVFAQRPVLDKKDWLIMLKRALWK	not soluble
MGSDKIHHHHHHMDGRGLKAYATPIRKFWVVLLQQRRMAMAENEKYLDWAREVLHTEAEGLREIAAELDENFVLAADALLHCKGRVVITGMGKSGHIGRKMAATMASTGTPAFFVHPAEAAHGDLGMIVDNDVVAAISNSGESDEITAIIPALKRKDITLVCITARPDSTMARHADIHITASVSQEACPLGLAPTTSTTAVMALGDALAVVLLRARAFTPDDFALIHPAGSLGKRLLLRVADIMHKGGGLPAVRLGTPLKGAIVSMSEKGLGMLAVTDGQGCLKGVFTDGDLRRLFQECDNFTGLSIDEVMHTHPKTISAERLATEALKVMQANHVNGLLVTDADGVLTGALNMHDLLAARIV	not soluble
MGSDKIHHHHHHMDIKQLRYFVEVARREHISDAALELNIAQSAISRQITQLEKELGVTLFKRSGRNIILTVEGRQLLSQATQILELMDKTIHSFQQHVSHNQQTIYIGYEESDASQMILPLIQTFEQQSNSTMIPQLTKHDKLLDQILSNQLDLAITEFTPVLERETHLRVMPLFEENYYMYVPKSHPLAMTVHPPLSQFTNQSLYCLEPMTSSIKSKLIEKTKAQVRMISDMKLAQHILSHNKGFIISSQNSLLYDHVNWTKIPLNHTELKRMLCVVMRKDNKKNDINIAWNLICTLLNKSTIY	not soluble
MGSDKIHHHHHHMDILRKVAEIHGTPTYVYFEETLRKRSRLVKEVFEGVNLLPTFAVKANNNPVLLKILREEGFGMDVVTKGELLAAKLAGVPSHTVVWNGNGKSRDQMEHFLREDVRIVNVDSFEEMEIWRELNPEGVEYFIRVNPEVDAKTHPHISTGLKKHKFGIPLEDLDSFMERFRSMNIRGLHVHIGSQITRVEPFVEAFSKVVRASERYGFEEINIGGGWGINYSGEELDLSSYREKVVPDLKRFKRVIVEIGRYIVAPSGYLLLRVVLVKRRHNKAFVVVDGGMNVLIRPALYSAYHRIFVLGKQGKEMRADVVGPLCESGDVIAYDRELPEVEPGDIIAVENAGAYGYTMSNNYNSTTRPAEVLVRENGRISLIRRRETEMDIFKDVVM	not soluble
MGSDKIHHHHHHMDILTGKCSDRFMAHVLKRRDQEAVRWYVLTLPTAGGGRDRISPSKGLDAELSRRERRGEALFEYFSPSYVEARKVGGKMVNTRQPLLYNYVFVHASEDEIFRLKRTLPLYNFLPRVSSGGRSYFPYLSDREMDTLRWVAASYSNELPVYVPDSGRLLKGDRVRITSGPFTDMEAEVVVQPGGGHKDVMVRILDCLWVPLFEVRAGEYELIELNTGGKHVYTHLDNDRLSEGLHDALGRYHASGVVVDEDACLAREVLRGYASLRAETDVIRCKLYSLLLPAYLLLGESDEFDRLRSTMRSMLPVIKAGQSRALLLVTLYGCTDSSLYQRMAHELVDPWQEEASPKKSKTVLIRRLRDYDRWLKHNE	not soluble
MGSDKIHHHHHHMDISIGDDSNGAVISIVGSHLDKLNLNGTAILLERYDDSPTHFGSAFLFPYANRVRNGEFTLDGKRYFLPKDDENNSIHGLVLSKKFDLVEKIENSVTMRYIMADECYPSPIEIFITHTVSEGKYTCRVKASNRGLTRAPVSAGFHPYFLYNGRWAIKKPRDTWKLEYDGQFPTGKMDKFLFEEDSFMHEFDNQFFADEDIVVDMGSHMIQIERENMPFFVIYNGKYSGGKSVAIEPMMSAVDAFNNGIGLRIVNPGESIEFAYSVEIRE	not soluble
MGSDKIHHHHHHMDIYEKYGLKPVINADGKMTILGVSQVSDQVAAAQKQGAQNFFEMAELTVQTGRYLADLIGSEDALIVNSASAGIAQVLAGIIGRGNAYHVTHPYTTQITQREVIMPLGHDVDYGAPVDVMLAVAGAQPVLAGYANRCTAEQLAMQITPQTVAILYIKSHHTVQKSMLTIADALQVAHDHHLPLVLDAAAEGDLRRYLQLGVDVVIYSGAKAISGPASGLVLGRQTYVEWARQQNYGIGRAMKIGKENILGLVAAVEQYLTTGPESGASMKARLAPFIAELQTLPNVQVEMVQDGAGRDIFRASVRIAEAAKICQALRQGRPAIYPREYRVNEGLIEFDIRALTSAEMTQIVERLRTIIEEESTCN	not soluble
MGSDKIHHHHHHMDKEEQYLLFALSTPMEVLYIGNEPSHTSPAMYTGIPAVDLSDSWGIDNREDLIQTIYRMTDDGHAADLAPFYIRWFTLSPRQWREFTAQFGEQGQIYARFVAETALCCGRGGIKAWDYVRMGFLCRMGVLNQWLTEEESLWLQSRIYARAYYFYDGWTQYFAAYSLGRLYWQAKGDTIQAYFAHLKYDASGARMFNELASTTESYYAQLPWRPLNEQPTCPETLKGVSDL	not soluble
MGSDKIHHHHHHMDKNPLVYEYSIGKRKPYDYDYGNRQGNQNAGCPFCDVRHLVNIFEKDGDKIWLKNKYPTLQDTDQTILIESSDHQGDISTYTREDNQELMKFALKCFQKMYNSGRYKSVLWYKNFGPKSDGSLTHPHMQIVGLYHKDGYHDIGPDNFKGFEVGKSGSVEMNLSAYPVQGYQEVNIITHDNTNLGTWADLIQKGTQYVRSVLSHGVDSYNLFFYPINDGQGTCCKIIPRFYASPYFVGYKISQVDDSDTLKWEAERLKGFVNGGILH	not soluble
MGSDKIHHHHHHMDLASKYFNGVNWRYIDHSSGLEPMQSFAFDDTFCESVGKDISDNVVRTWIHQHTVILGIHDSRLPFLKDGIDYLTNEIGYNAIVRNSGGLGVVLDQGVLNISLMFKGQTETTIDEAFTVMYLLISKMFEDENVDIDTMEIEHSYCPGKFDLSIDGKKFAGISQRRVRGGIAVQIYLCVEGSGSERALMMQTFYEHALKGEVTKFKYPEIEPSCMASLETLLNKTITVQDVMFLLLYAIKDLGGVLNMTPITQEEWQRYDTYFDKMIERNKKMIDQMQ	not soluble
